Target: E protein of YFV-17D virus (Yellow fever virus strain 17D, UniProt P03314 286-778)
Assay: cell-based or functional assay

E protein of YFV-17D virus, sequence (P03314 286-778 limits assumed): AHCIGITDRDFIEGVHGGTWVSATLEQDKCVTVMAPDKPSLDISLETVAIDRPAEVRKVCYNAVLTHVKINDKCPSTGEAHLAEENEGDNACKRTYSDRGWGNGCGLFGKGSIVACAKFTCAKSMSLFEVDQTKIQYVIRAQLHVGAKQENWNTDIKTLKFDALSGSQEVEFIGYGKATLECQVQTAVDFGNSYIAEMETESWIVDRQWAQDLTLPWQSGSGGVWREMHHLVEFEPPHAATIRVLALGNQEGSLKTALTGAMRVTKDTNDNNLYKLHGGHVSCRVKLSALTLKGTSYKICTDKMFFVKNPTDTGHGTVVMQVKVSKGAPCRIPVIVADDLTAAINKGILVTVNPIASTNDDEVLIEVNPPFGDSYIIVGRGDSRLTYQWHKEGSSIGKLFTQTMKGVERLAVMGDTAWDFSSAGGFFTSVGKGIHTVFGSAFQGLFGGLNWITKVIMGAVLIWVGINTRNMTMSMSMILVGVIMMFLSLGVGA

B1: human monoclonal antibody YFV-136 (antibody, V domains shown)
VH: QVQLQESGPGLVKPSGTLSLTCAVSGGSISSSNWWSWVRQPPGKGLEWIGDIYHSGSTSYNPSLKSRVTISVDRSKNQFSLKLSSVTAADTAVYYCARAPLVNWYYFDYWGQGTLVTVSS
VL: QSVLTQPPSVSAAPGQKVTISCSGSSSNIGNNYVSWYQQLPGTAPKLLIYDNNKGPSGIPDRFSGSKSGTSATLGITGLQTGDEADYYCGTWDTSLSAGRVFGGGTKLTVL
IC50, focus reduction neutralization test (FRNT) of YFV-17D in Vero cells: < 10 ng/mL

Reference: patent US20230072640A1 (VANDERBILT UNIVERSITY, published 2023)
